± gives the standard deviation.

The data set in a line: protein stability index of a GFP-peptide fusion (GPS, HEK-293T) (PSI 1-6); higher = more stable. As to conditions: c terminus: a fixed tail appended.
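Note: 24-mer peptide tiles fused after GFP, lentivirally expressed, FACS-sorted into six equal bins by GFP/DsRed ratio, decoded by Illumina sequencing, PSI is the read-weighted mean bin number.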

As for KINKIRWLPQQNAAYFLLSTNDKT [PPP2R2B], the protein stability index amounted to 2.69 ± 0.26 (treatment: DMSO) and 2.54 ± 0.039 (treatment: MLN4924 1 uM, 8 h).
Taken in the same sequence, the figures for KIRPDSSRPELLQPLNFVRFYLPL [GLT8D2] were 2.19 ± 0.42 and 2.17 ± 0.18.
As for KKGSNGYGFYLRAGSEQKGQIIKD [PDZK1], the protein stability index turned out to be 3.19 ± 0.44 (treatment: DMSO) and 3.33 ± 0.27 (treatment: MLN4924 1 uM, 8 h).
Consider KKKNTNKQEMGTYLRFIVSRMKER [ZMYND11], for which the protein stability index by setting is: (treatment: DMSO) 2.47 ± 0.16; (treatment: MLN4924 1 uM, 8 h) 2.92 ± 0.25.
On the same counts, the results for KLATEAGVEVIVRISHTLYDLDKI [CRY1] are 2.97 ± 0.32 and 3.13 ± 0.71.
Taken in the same sequence, the figures for KLEESKQLLKNNEKLITWLNKELN [SASS6] were 2.24 ± 0.36 and 1.99 ± 0.73.
Consider KLFAHSSDLLSEFKKHDADKVGLI [PPEF2], for which the protein stability index by setting is: (treatment: DMSO) 2.63 ± 0.3; (treatment: MLN4924 1 uM, 8 h) 2.68 ± 0.38.
As for KLPPYLIFCIKRFTKNNFFVEKNP [USP39], the protein stability index worked out at 3.02 ± 0.12 (treatment: DMSO) and 2.75 ± 0.4 (treatment: MLN4924 1 uM, 8 h).
Regarding KMELLILETQAQVCQALAQVDGGA [CPOX], the protein stability index worked out at 2.14 ± 0.52 (treatment: DMSO) and 2.18 ± 0.52 (treatment: MLN4924 1 uM, 8 h).
As to KMTDLLSRRLQLGSEENGRYFSLS [PCDHGC5], the protein stability index (treatment: DMSO) is 2.41 ± 0.16 and the protein stability index (treatment: MLN4924 1 uM, 8 h) amounted to 2.47 ± 0.14.
In turn, KMVPRYDLNRHLDEMCANNDFVQV [FAN1] showed a protein stability index (treatment: DMSO) of 2.81 ± 0.15 and a protein stability index (treatment: MLN4924 1 uM, 8 h) of 2.8 ± 0.46.
Taken in the same sequence, the figures for KPDGTVEQIGHILVSWLPRLNAYR [NET1] were 2.21 ± 0.52 and 2.1 ± 0.1.
On the same counts, the results for KPILLHQVEALAAAGVDHVILAVS [GMPPB] are 2.55 ± 0.48 and 2.61 ± 0.5.
Taken in the same sequence, the figures for KQNGRVAKVKGHRSQKHKERIRLL [C18orf25] were 3.9 ± 0.28 and 3.97 ± 0.29.
As to KQSLVVAVQDHGQPPLSATVTLTV [PCDHGA10], the protein stability index by setting is: (treatment: DMSO) 2.72 ± 0.59; (treatment: MLN4924 1 uM, 8 h) 2.68 ± 0.45.
On the same counts, the results for KRESFLKYKCLLQQLYYTEADYED [IQUB] are 2.2 ± 0.31 and 2.49 ± 0.3.
On the same counts, the results for KRFVAMKVVKSAQHYTETALDEIK [SRPK2] are 2.97 ± 0.51 and 2.92 ± 0.38.
Taken in the same sequence, the figures for KSYPSSELRNMCDEHIASEEPAEK [CLCN6] were 5.53 ± 0.2 and 5.44 ± 0.27.
Take KTHTGEKPHRCHNCGKSFSRLTAL [ZNF449]: the protein stability index turned out to be 2.47 ± 0.12 (treatment: DMSO) and 2.67 ± 0.45 (treatment: MLN4924 1 uM, 8 h).
Regarding KTTLGWKYEQAFESSQKYKEGKYI [YPEL3], the protein stability index reads like this: (treatment: DMSO) 2.37 ± 0.3; (treatment: MLN4924 1 uM, 8 h) 2.63 ± 0.17.
On the same counts, the results for KVGKLAATAVGGGFFLLQLANHTG [FUNDC2] are 2.38 ± 0.59 and 2.46 ± 0.87.
In the case of KVPRPDALDNESWGFVHPRLLSVP [RETREG3], the protein stability index by setting is: (treatment: DMSO) 2.91 ± 0.13; (treatment: MLN4924 1 uM, 8 h) 2.74 ± 0.081.
On the same counts, the results for KVVKGHRPELPPVCRARPRACSHL [RIPK4] are 3.19 ± 0.36 and 3.04 ± 0.46.
On the same counts, the results for KYDYLMTLHGVVNESTVCLMSYER [TENT5D] are 2.38 ± 0.34 and 2.36 ± 0.22.
Taken in the same sequence, the figures for KYNHAACFGLQPGCLLPDGSRMMA [NLN] were 2.59 ± 0.27 and 2.55 ± 0.33.
For KYRSYEEFKADAQLLLHNTVIFYG [ZMYND11], the protein stability index is 2 ± 0.46 (treatment: DMSO) and 2.07 ± 0.33 (treatment: MLN4924 1 uM, 8 h).
Taken in the same sequence, the figures for LAAVTPHDFIEHILRKLPQQREKL [CCND2] were 2.53 ± 0.17 and 2.74 ± 0.23.
Taken in the same sequence, the figures for LAFPLKHPDSWRAYPFYWAWLPQA [PI4K2A] were 2.42 ± 0.65 and 2.48 ± 0.84.
For LAICRPLTYSTRMSQTVQRMLVAA [OR3A1], the protein stability index runs as follows: (treatment: DMSO) 2.49 ± 0.17; (treatment: MLN4924 1 uM, 8 h) 2.54 ± 0.14.
Taken in the same sequence, the figures for LAYLPFKLEKSIDSYYRLVIHRAL [PCDHGA10] were 2.25 ± 0.62 and 2.23 ± 0.81.
Taken in the same sequence, the figures for LCEPDPVHFSEAIEKFIREPSLKA [ALG2] were 3.81 ± 0.19 and 3.91 ± 0.19.
On the same counts, the results for LCHCGKAFSHKSMRDRHVNMHLNL [ZBTB22] are 2.21 ± 0.45 and 2.32 ± 0.14.
With LCIHTGRELRCKVFPIKHYQDKIR [TRIB1], the protein stability index runs as follows: (treatment: DMSO) 2.27 ± 0.52; (treatment: MLN4924 1 uM, 8 h) 2.18 ± 0.18.
Taken in the same sequence, the figures for LCSVGASKAVFLWNMDKYTMIRKL [WSB1] were 2.34 ± 0.4 and 2.17 ± 0.31.
Taken in the same sequence, the figures for LDDIIRHDFFLQGFTPDRLSSSCC [PLK2] were 2.48 ± 0.043 and 2.64 ± 0.3.
LDFTHPKARDWFQGHLRRLRSRYS [MYORG] came in with a protein stability index (treatment: DMSO) of 2.79 ± 0.39 and a protein stability index (treatment: MLN4924 1 uM, 8 h) of 2.97 ± 0.074.
Regarding LDPWFAGSSNVGINRWRFLLQCLE [CRY1], the protein stability index was 2.5 ± 0.36 (treatment: DMSO) and 2.54 ± 0.23 (treatment: MLN4924 1 uM, 8 h).
Taken in the same sequence, the figures for LDSRSTDRVLQWERIDCQGIPPSS [KLHDC2] were 4.09 ± 0.29 and 3.98 ± 0.24.
Taken in the same sequence, the figures for LEDTCKTIEECCRKQKQELCEKFD [TRIM55] were 4.86 ± 0.094 and 4.74 ± 0.25.
On the same counts, the results for LEEAKQPKNDNVVIPECAHGGLYK [SMOC2] are 5.31 ± 0.14 and 5.146 ± 0.035.
Turning to LEEEEEEEDLVLTCEDDEDEELGG [ZBTB22], the protein stability index is, setting by setting: (treatment: DMSO) 5.57 ± 0.2; (treatment: MLN4924 1 uM, 8 h) 5.56 ± 0.18.
LEGAQAPLAVEEDASSSTSTSSSF [MAGEA10]: the protein stability index came to 5.66 ± 0.14 (treatment: DMSO) and 5.55 ± 0.2 (treatment: MLN4924 1 uM, 8 h).
On the same counts, the results for LEKEEEKDLVMYSKCQRLFRSPSM [CDC25B] are 3.69 ± 0.39 and 3.57 ± 0.18.
On the same counts, the results for LENELDLKLVSFSKLCTSYSHSST [GOSR1] are 2.98 ± 0.13 and 2.93 ± 0.16.
Taken in the same sequence, the figures for LENRIQREIALAKKHGTQNKRAAL [CHMP4C] were 4.09 ± 0.26 and 4.04 ± 0.25.
Sequence LEQRRQQASEREAPSIEQRLQEVR [FCHSD1] displayed a protein stability index (treatment: DMSO) of 5.37 ± 0.32 and a protein stability index (treatment: MLN4924 1 uM, 8 h) of 5.26 ± 0.12.
Regarding LFKAHFRGEVLPEEITEESLEESV [INTS3], the protein stability index amounted to 4.9 ± 0.091 (treatment: DMSO) and 4.962 ± 0.037 (treatment: MLN4924 1 uM, 8 h).
As for LFNILAKFNGITEKEYKTYKENFL [USP39], the protein stability index by setting is: (treatment: DMSO) 2.16 ± 0.43; (treatment: MLN4924 1 uM, 8 h) 2.5 ± 0.25.
For the sequence LFSLKESPEKFQIEANFPRRVLPC [FAF2], the protein stability index by setting is: (treatment: DMSO) 2.61 ± 0.3; (treatment: MLN4924 1 uM, 8 h) 2.84 ± 0.24.
In the case of LGKITFIRNSRPLVKKVEEDEAGG [UFD1], the protein stability index (treatment: DMSO) is 3.99 ± 0.34 and the protein stability index (treatment: MLN4924 1 uM, 8 h) worked out at 3.94 ± 0.25.
On the same counts, the results for LGLAGRCLTLTPRPATEAELLTCH [HDAC6] are 2.86 ± 0.26 and 2.7 ± 0.4.
On the same counts, the results for LGLVARQEDSGLRDHSVRVLISNH [AUP1] are 3 ± 0.15 and 3.01 ± 0.36.
